Reference: patent US20190046652A1

Columns and labels:
[1] = biological target: Peptide (C4 and C2); experiment: fluorescence titration, curve fitting
[2] = biological target: protein (GFP & Nanobody); experiment: fluorescence titration, curve fitting

Kd [1]: 10 to 20 nM
Kd [2]: 1000 nM
B1: VEPEP-3a (peptide)
peptide: XKWFERWFREWPRKRR
HELM: PEPTIDE1{[ac].[bAla].K.W.F.E.R.W.F.R.E.W.P.R.K.R.R.[SCCN[*:1]]}$$$$V2.0
SMILES: CC(=O)NCCC(=O)N[C@@H](CCCCN)C(=O)N[C@@H](Cc1c[nH]c2ccccc12)C(=O)N[C@@H](Cc1ccccc1)C(=O)N[C@@H](CCC(=O)O)C(=O)N[C@@H](CCCNC(=N)N)C(=O)N[C@@H](Cc1c[nH]c2ccccc12)C(=O)N[C@@H](Cc1ccccc1)C(=O)N[C@@H](CCCNC(=N)N)C(=O)N[C@@H](CCC(=O)O)C(=O)N[C@@H](Cc1c[nH]c2ccccc12)C(=O)N1CCC[C@H]1C(=O)N[C@@H](CCCNC(=N)N)C(=O)N[C@@H](CCCCN)C(=O)N[C@@H](CCCNC(=N)N)C(=O)N[C@@H](CCCNC(=N)N)C(=O)NCCS
